Source: paper PMC3381998

Experiments:
SEPT7 = SEPT7 (UniProt Q16181); assay: co-IP
SEPT6 = SEPT6 (UniProt Q14141); assay: co-IP
Chain of SEPT6 (Q14141 whole entry): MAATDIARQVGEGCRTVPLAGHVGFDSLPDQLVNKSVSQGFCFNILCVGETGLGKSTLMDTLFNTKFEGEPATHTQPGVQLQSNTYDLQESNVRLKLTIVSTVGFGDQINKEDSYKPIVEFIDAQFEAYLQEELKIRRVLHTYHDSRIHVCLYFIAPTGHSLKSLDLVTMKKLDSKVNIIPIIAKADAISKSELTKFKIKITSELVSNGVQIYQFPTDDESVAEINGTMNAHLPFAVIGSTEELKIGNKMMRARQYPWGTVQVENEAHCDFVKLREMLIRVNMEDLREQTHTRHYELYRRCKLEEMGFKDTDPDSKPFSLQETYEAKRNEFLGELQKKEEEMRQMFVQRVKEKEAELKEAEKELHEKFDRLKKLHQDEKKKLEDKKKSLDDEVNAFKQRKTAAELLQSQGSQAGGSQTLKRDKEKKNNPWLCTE

Chain of SEPT7 (Q16181 whole entry): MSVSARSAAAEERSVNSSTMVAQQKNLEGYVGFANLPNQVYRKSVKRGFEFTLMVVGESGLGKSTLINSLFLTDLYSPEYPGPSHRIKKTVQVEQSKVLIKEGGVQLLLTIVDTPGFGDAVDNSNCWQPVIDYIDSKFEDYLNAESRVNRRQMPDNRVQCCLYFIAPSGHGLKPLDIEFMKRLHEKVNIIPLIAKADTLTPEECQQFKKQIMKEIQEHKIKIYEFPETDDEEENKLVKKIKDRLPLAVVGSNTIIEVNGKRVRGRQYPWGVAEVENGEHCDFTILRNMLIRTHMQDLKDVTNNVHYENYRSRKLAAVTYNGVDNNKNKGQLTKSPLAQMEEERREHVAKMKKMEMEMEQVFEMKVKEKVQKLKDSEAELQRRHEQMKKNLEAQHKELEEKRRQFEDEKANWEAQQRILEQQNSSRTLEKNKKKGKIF

percent of total SEPT6 precipitated with SEPT7 (SEPT7)	percent of SEPT7 depleted on immunodepletion of SEPT6 (SEPT6)	percent of SEPT7 that interacts with SEPT6 (SEPT6)	Substance
24%	–	–	SEPT6 (from UniProt Q14141 1-434) (natural protein)
–	30%	43%	SEPT7 (from UniProt Q16181 1-437) (natural protein)
